Reference: the nanobody polyreactivity screen of Harvey et al. (2022)

Test: yeast display, Sf9 membrane polyspecificity reagent, FACS + sequencing; frameworks hold sequencing errors
Outline: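 Galactose induction of a Saccharomyces cerevisiae BJ5465 synthetic nanobody display library ran 36–48 hours. The cells were then stained for 1 hour at 4 °C with 10% biotinylated, detergent-solubilized Sf9 membrane reagent, pulled down on streptavidin microbeads and FACS-sorted into low and high (top ~1%) gates on expression and reagent-binding fluorescence. Labels for polyreactivity follow the gate of origin.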

QVQLVESRGGLVQAGGSLRLSCAASGSIFLYYARGRSRQSPGKERELVAAIRRGGNTNYADSVKGRFTISRDNAKNTVYLQLNSLKPEDTAVYYCAAAQYSRYSRVPNYYAGTYYYWGQGTQVTVSS
polyreactivity (PSR sort gate): low polyreactivity

QVQLVESGGGLVQAGGSLRLSCAASGSTFPKYAMGWYRQAPGKERELVASISVTTGSTYYADSVKGRFTISRDNAKNTVYLQMNSLKPEDTAVYYCAARRGWGDDYWGQGTQVTVSS
polyreactivity (PSR sort gate): high polyreactivity

QVQLVESGGGLVQAGGTLRLSCAASGFIFAGYAMAWYRHAPGKERELVAASSWDGGSTYFADSVKGRFTISRDNAKHTVYLQMNSLIPEDTAGYYCAAKYFRHGPATYDYWGQGTQVTVSS
polyreactivity (PSR sort gate): low polyreactivity

QVQLVESGGGLVQAGGSLRLSCAASGRTFYWYTMGWYRQAPGKERELVAAISIGGITSYADSVKGRFTISRDNAKNTVYLQMNSLKPEDTAVYYCAAESACSRPYFNSIHRRDSWGQGTQVTVSS
polyreactivity (PSR sort gate): low polyreactivity

QVQLVESGGGLVQAGGSLRLSCAASGSIFGQYAMGWYRQAPGKERELVAAISTRGGSTRYADSVKGRFTISRDNAKNTVYLQMNSLKPEDTAVYYCAARPGYLYDYWGQGTQVTVSS
polyreactivity (PSR sort gate): high polyreactivity

QVQLVESGGGLVQAGGSLRLSCAASGFTFHTYAMGWYRQAPGKERELVAAIDSSGGITYYADSVKGRFTISRDTAKNTVYLQMNSLKPEDTAVYYCAAVFLLFGFEWSYDYWGQGTQVTVSS
polyreactivity (PSR sort gate): low polyreactivity

QVHLVESGGGLVQAGGSLRLSCAASGRTFENNAMGWYRPAPGKESELVAAITVSGGSTYYADSVKGRFTLSRDNAKNTVDLQMNSLKPEDTAVYYCAIVGFGIPGGFYYWGEGTQVTVSS
polyreactivity (PSR sort gate): low polyreactivity

QVQLVESGGGLVQAGGRLSLSCSASGSIFEQKAMGWYRKAPGKEREFVATISDGGGTYYADSVKGRFTISRDNAKNTVYLQINSLKPEDNAVYYCAATFGGSVFVYDYWGQGTQVTLSS
polyreactivity (PSR sort gate): low polyreactivity

QVQLVESGGGLVQAGGSLRLSCAASGLTFFAYPMGWYRQAPGKERELVAVITSSGGSTNYADSVKGRFTISRDTPKNTVYLQMNSLKPEDTAVYYCAAYIRYTLPTSRGFGYWGQGTQVTVSS
polyreactivity (PSR sort gate): high polyreactivity

QVQLVESGGGLVQAGGSLRLSCAASGSIFYSYVMGWYRQAPGKERELVAAISRNGQSTYYADSVKGRFTISRDNAKNTVYLQMNSLKPEDTAVYYCAARSRDKYDYWGQGTQVTVSS
polyreactivity (PSR sort gate): high polyreactivity

QVQLVESGGGLVQAGGSLRLSCAASGRTFPYYAMGWYRQAPGKERELVAAISSSGGSTYYADSVKGRFTISRDNAKNTVYLQMNSLKPEDTAVYYCAATRGWLHSFARDDHDYWGQGTQVTVSS
polyreactivity (PSR sort gate): high polyreactivity

QVQLVESGGGLVQAGGSLRLSCAASGSIFSVNAMGWYRQAPGKERELVAAISWRGGSTYYADSVKGRFTISRDNAKNTVYLQMNSLKPEDTAVYYCNAVISVKRSTRYGYWGQGTQVTVSS
polyreactivity (PSR sort gate): low polyreactivity

QVQHVESGVGLVQAGGSLRLSCAASGFTFGWYAMGWYRQAPGKERELVASISWSGSTTYYADSVKGRFTISRDIAKNTVYLQMNSLKPEDTAVYYCNARRSYVRNDFDYWGQGTQVTVSS
polyreactivity (PSR sort gate): high polyreactivity

QVQLVESGGGLVQAGGSLRLSCAASGSIYNINAMGWYRQAPGKERELVATITSGGTTSYADSVKGRFTISRDNAKNTVYLQMNSLKPEDTAVYYCNAEIYPIVKAGRQHPRRYDYWGQGTQVTVSS
polyreactivity (PSR sort gate): low polyreactivity

QVQLVESGGGLVQAGGSLRLSCAASGRIFWEYAMGGYRQAPGKERELVAAITWRVGSTYYADSVKGRFTISRDYAKNTVYLQMNSLKPEDTAVFYCAAARYLSIYNYWGHGTQVTVSS
polyreactivity (PSR sort gate): low polyreactivity

QVQLVESGGGLVQAGGSLRLSCAASGSIFIYNARGWYRQAPGKERELVAAINWTGGSTYYADSVKGRFTISRDNAKNTVYLQMNSLKPEDTAVYYCNALRYGSTRGYDYWGQGTQVTVSS
polyreactivity (PSR sort gate): high polyreactivity

QVQLVETVGGLDQAGGSLLLSCAASGRIFWENALGWYRQAPGKERELVAAISDSVVITYYADSVKGRFTISRDNAKNTVYLQMNSLKPEDTAVYDCAADKRGSVYLSSFWMDYWGQGTQVTVSS
polyreactivity (PSR sort gate): low polyreactivity

QVQLVESGGGLVQAGGSLRLSCAASGMFGLNAMGWYRQAPGKERELVAAIRWTGSSTYYADSVKGRFTISRDNAKNTVYLQMNSLKPEDTADYYCAADFYVWGIWMEYWGQGTQVTVSS
polyreactivity (PSR sort gate): high polyreactivity

QVQLVESGGGLVQAGGSLRLSCASSGSTFKYYAMGWYRQSPGKERELVAAISGTGGSTYYADSVKGRFTISRDNAKNTVYLQMNCLKPEDTAVYYCNTYPYIRYDYWGQGTQVTVSS
polyreactivity (PSR sort gate): high polyreactivity

QVQLVESGGGLVQEGGSLRLSCAASGRIIEYNTMGLNRPATGKERELVAAITGGTGSTYYADSVKGRFTISRDNAKNTVYLQMNSLIPVDTSVYYCNADGMILYDYWGQGTQVTVSS
polyreactivity (PSR sort gate): low polyreactivity

QVQLVESGGGLVQAGGSLRLSCAASGIIFDGNAMGGYRQAAGKERELVAAHTSSTDSTYYADSVKGRFTISRDNAKNTVYLQMNSLKPEDTAVYYCAADYPSKTFDYWGQGTQVTVSS
polyreactivity (PSR sort gate): low polyreactivity

QVQLVESGGALVQAGGSLRLSCAASGRIFGVYAMGWYRQAPGKERELVAAITRGASTYYADSVKGRFTISRDNSKNTVYLQMNSLKPEDTAVYYCAVSQYRGIYRKYDYWGHGTQVTVSS
polyreactivity (PSR sort gate): high polyreactivity

QVQLVESGGGLVQAGGSLRLSCAASGSIFGGNAMGWYRQAPGKERELVAAITSTVSTNYADSVKGRFTISRDNAKNTVYLQMNSLKPEVTAVYYCATDSSNVEGDYWGQGTQVTVSS
polyreactivity (PSR sort gate): low polyreactivity

QVQLVESGGGLVQAGGSLRLSCAASGNTFWYYAMGWYRQAPGKERELVAAISWDGGITYYADSVKGRFTISRDNAKNTVYLQMNSLKPEDTAVYYCAAETNPKYRYTLDKYEYWGQGTQVTVSS
polyreactivity (PSR sort gate): high polyreactivity

QVQLVESGGGLVQAGGSLRLSCAASGRTFYVNAMGWYRQAPGKERELVATITDRGGRTYYADSVKGRFTISRDNAKNTVYLQMNSLKPEDTAVYYCAATRWYEVDYWGQGTQVTVSS
polyreactivity (PSR sort gate): low polyreactivity

QVQLVESGGGLVQAGGSLRLSCAASGFIFAYNAMGWYRQAPGKERELVAAISWSGGSTYYADSVKGRFTISRDNAKNTVYLQLNSLKPEDTAVYYCNKYIRYPFKRYGYWGQGTQVTVSS
polyreactivity (PSR sort gate): high polyreactivity

QVQLVESGGGLVQAGGRLRLICAASGYTFPLYAMGWYRPAPGKERELVADINIGGASTYYADSVKGRFTISRDNAKNTVELQMNSLKPEDPAVYYCAKEYYDGYFPTFDYDYWGQGTQVTVSS
polyreactivity (PSR sort gate): low polyreactivity

QVQLVESGGGLVQAGGSLRLSCAASGFIFVTYAMGWYRHAPGKERELVAAITNSGGTTYYADSVKGRFTISRDNAKNTVYLQMNSLKPEDTAVYYCNKPYGAETAHREFDYWGQGTQVTVSS
polyreactivity (PSR sort gate): low polyreactivity

QVQLVESGGGLVQAGGSLRLSCAASGSIFFIYDMGWYRQAPGKERELVADITSGGGSTFYADSVKGRFTISRDNAKNTVYLQMNSLKPEDTAVYYCATDDHDQPGGQLYITEVNYWGQGTQVTVSS
polyreactivity (PSR sort gate): low polyreactivity

QVQLVESGGGLVQAGGSLRLSCAPSGRIFWRYAMGWYRQAPGKERELVAGITYSGGRTYYADSVKGRFTISRDNAKNSVFLQMNSLKPEDSAVYYCAARGYFDALVDYWGQGTQVTVSS
polyreactivity (PSR sort gate): low polyreactivity

QVQLVESGGGLVQAGGSLRLSCAASGRTFPFNAMGWYRQAPGKERELVAVINSGGSTYYADSVKGRFTISRDNAKNTVYLQMNSLKPEDTAVYYCNAYSSRYRYNYWGQGTQVTVSS
polyreactivity (PSR sort gate): high polyreactivity

QVQLVESGGGLVQAGGSLRLSCAASGITLYGNVMGWYRQAPGKERELVAAISGGSTFYADSVKGRFTISRDNAKNTVYLQMNSLKPEDTAVYYCSAEGYGYGSNVPYYYWGQGTQVTVSS
polyreactivity (PSR sort gate): low polyreactivity

QVQLVESGGGLVQAGGRLRLSSAASGSTFHGYAMGWYRQEPGKERELVAAITSGDSTNYADSVKGRFTISRDNAKKTVYLQMNSLKPEDTAVYDCNAEGSSVLTGYWGYPPYWDTYVYWGQGTQVTVSA
polyreactivity (PSR sort gate): low polyreactivity

QVQLVESRGGLVQAGGSLRLSCAASGFIFGVNAMGWYRQAPGKERELVAAITRNGGSTYYADSVKGRFTISRDYAKNSVYLQMNSLKPEDTAVYYCAKYVRRAPSTFDVDYWGQGTQVTVSS
polyreactivity (PSR sort gate): high polyreactivity

QVQLVESGGGLVQAGGSLRLSCAASGRTICRNVMGWYRQAPGKERELVAAISRSGGSTYYADSVKGRFTISRDNAKNTVYLQMNSLKPEVTAVYYCAAYSVGDYYWGQGTQVTVSS
polyreactivity (PSR sort gate): high polyreactivity

QVQLVESGGGLVQAGGSLRLSCAASLSIFYVNAMGWYRQAPGKESELVAAISFSGGTTYYADSVKGRFTISRDNAKNTVYLQMNSLKPEDTAVYYCNTPSSREMDYWGQGTQVTVSS
polyreactivity (PSR sort gate): low polyreactivity

QVQLVESGVGLVQAGGSLRLSCAASGLILYTYAMGWYRQAPGKESELVAAINSGGRTNYADSVKGRFTISRDNAKNSVYLQMNSLKPEDTAVYYCAADYGSRVRGFNYWGQGTQVTVSS
polyreactivity (PSR sort gate): low polyreactivity

QVQLVESGGGLVQAGGSLRLSCAASGLTFYWNAMGWYRQAPGKERELVASISQSSGNTYYADSVKGRFTISRDNAKNTVYFQMNSLKPEDTAVYYCAARNRPSLNRYYYWGQGTQVNVSS
polyreactivity (PSR sort gate): low polyreactivity

QVQLVESGGGLVQAGGSLRLSCAASGSIFSGNEMGWYRQAPGKDSELVATISWSGGSTNYADSVKGGFTISRDNAKNTVYLQMNSLKPEDTSVYYCAAVPGWVRQADGWVLSLLDYWGQGTQVTVSS
polyreactivity (PSR sort gate): low polyreactivity

VVQLVESGGGLVQAGGRLRLSCAASGIIFGRYAMGWYRQAPGKERELVASITGNGSTTYYADSVKGRFTISRDNAKNTVYLQMNSLKPDDTAGYYCAADIVVGSPSAEFDYWGQGTQVTVSS
polyreactivity (PSR sort gate): low polyreactivity

QVQLVESGGGLVQAGGSLRLSCAASGSNFETYVMGWYRQAPGKERELFAAINSGGSTNYADSVKGRFTISRDNAKNTVYLQMNSLKPEETAVYYCNADWFTPAQPWYRYFIRYDYWGQGSQVTVSS
polyreactivity (PSR sort gate): low polyreactivity

QVQLVESGGGLVQAGGSLRLSCAASGYIFRYYAMGWYRQAPGKERELVAVISSTGTSTYYADSVKGRFTISRDNAKNTVYLQMNSLKPEDTAVYYCAVKGYFSYWRYQSDYWGQGTQVTVSS
polyreactivity (PSR sort gate): high polyreactivity

QVQLEESGGGLVQAGGSLRLSCAASGRTFTSNPMGLYRKAPGKERELVAAISNSGSSTYYADSVKGRFTISRDNAKNTVYLQMNSLKAEDTAVYYCAAYHYRQNTLYYYWGQGTQVTVSS
polyreactivity (PSR sort gate): high polyreactivity
